The data set deals with Escherichia coli TOP10. Description: shrunken log2 fold change of peptide-encoding DNA abundance (4.5 h post-induction vs induction); higher = less antimicrobial activity (less host growth inhibition). The settings on record: time post-induction: 4.5 h; library: site-saturation at positions 5, 18, 19, 20.
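Further: peptides expressed intracellularly from a pBAD plasmid library in pooled LB shake-flask culture, induced with 0.3% L-arabinose, DNA abundance read by NGS, three biological replicates, DESeq2 with apeglm shrinkage.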

As to RRIRLRPPRLPRPRPRPLSCPRP, the “shrunken log2 fold change” value is -0.0916.
Next, RRIRLRPPRLPRPRPRPHQHPRP: -0.109; RRIRPRPPRLPRPRPRPQNGPRP: -0.281; RRIRGRPPRLPRPRPRPVCDPRP: 0.959.
The result for RRIRHRPPRLPRPRPRPGYDPRP reads 0.381.
Take RRIRDRPPRLPRPRPRPKRRPRP: the “shrunken log2 fold change” value stood at 0.529.
Next, RRIRERPPRLPRPRPRPRVPPRP: 0.425.
Regarding RRIRCRPPRLPRPRPRPCMHPRP, the “shrunken log2 fold change” value is -0.0569.
The result for RRIRRRPPRLPRPRPRPQRRPRP reads 0.482; that for RRIRLRPPRLPRPRPRPPKDPRP, 0.137.
On to RRIRPRPPRLPRPRPRPVQIPRP, for which the “shrunken log2 fold change” value was -0.13.
As for RRIRIRPPRLPRPRPRPVEWPRP, the “shrunken log2 fold change” value stood at 0.0101.
The result for RRIRPRPPRLPRPRPRPMRHPRP reads -0.0129; that for RRIRLRPPRLPRPRPRPHIKPRP, -0.528.
The result for RRIRCRPPRLPRPRPRPMFGPRP reads -0.556; that for RRIRIRPPRLPRPRPRPPPYPRP, -0.177.
For RRIRNRPPRLPRPRPRPHNIPRP, the “shrunken log2 fold change” value is -0.54.
The result for RRIRGRPPRLPRPRPRPVMWPRP reads 0.932.
The result for RRIRKRPPRLPRPRPRPICFPRP reads 0.272; that for RRIRFRPPRLPRPRPRPVSEPRP, 0.114.
The result for RRIRSRPPRLPRPRPRPYCWPRP reads -0.419.
RRIRRRPPRLPRPRPRPAPQPRP: the “shrunken log2 fold change” value turned out to be 1.39.
Next, RRIRYRPPRLPRPRPRPWTCPRP: -0.362.
For the sequence RRIRIRPPRLPRPRPRPMMEPRP, the “shrunken log2 fold change” value was -0.599.
The result for RRIRARPPRLPRPRPRPRINPRP reads 0.105; that for RRIRCRPPRLPRPRPRPGPAPRP, 0.543.
As for RRIRWRPPRLPRPRPRPFEIPRP, the “shrunken log2 fold change” value was determined as 0.0217.
Next, RRIRARPPRLPRPRPRPLRNPRP: 0.516.
Next, RRIRVRPPRLPRPRPRPHRYPRP: -0.348; RRIRMRPPRLPRPRPRPYHAPRP: -0.387; RRIRVRPPRLPRPRPRPGCPPRP: 0.181.
The result for RRIRMRPPRLPRPRPRPYDAPRP reads 0.11; that for RRIRARPPRLPRPRPRPKARPRP, 1.16; that for RRIRKRPPRLPRPRPRPETCPRP, 0.0906.
RRIRWRPPRLPRPRPRPRHDPRP: the “shrunken log2 fold change” value came out at 0.107.
Consider RRIRIRPPRLPRPRPRPPEMPRP, for which the “shrunken log2 fold change” value is -0.291.
Next, RRIRKRPPRLPRPRPRPGIHPRP: 0.149; RRIRRRPPRLPRPRPRPSFTPRP: 0.0475.
RRIRKRPPRLPRPRPRPFIVPRP: the “shrunken log2 fold change” value was -0.345.
Take RRIRDRPPRLPRPRPRPKIDPRP: the “shrunken log2 fold change” value is 0.0277.
The result for RRIRHRPPRLPRPRPRPLSNPRP reads -0.174; that for RRIRCRPPRLPRPRPRPGMRPRP, 0.532; that for RRIRWRPPRLPRPRPRPFKVPRP, 0.00438.
For RRIRHRPPRLPRPRPRPKKKPRP, the “shrunken log2 fold change” value was -0.0281.
Next, RRIRQRPPRLPRPRPRPRLFPRP: 0.701; RRIRMRPPRLPRPRPRPDEHPRP: 2.21; RRIRWRPPRLPRPRPRPRNRPRP: -0.0206.
For RRIRSRPPRLPRPRPRPNGIPRP, the “shrunken log2 fold change” value came out at 0.033.
With RRIRWRPPRLPRPRPRPSLWPRP, the “shrunken log2 fold change” value turned out to be 0.575.
Next, RRIRDRPPRLPRPRPRPCQMPRP: -0.00455; RRIRNRPPRLPRPRPRPFDVPRP: -0.0429; RRIRIRPPRLPRPRPRPARYPRP: -0.264.
Next, RRIRLRPPRLPRPRPRPWTPPRP: -0.191; RRIRCRPPRLPRPRPRPILGPRP: -0.378; RRIRRRPPRLPRPRPRPMQRPRP: 0.24.
Next, RRIRARPPRLPRPRPRPMQEPRP: 0.421; RRIRFRPPRLPRPRPRPYSAPRP: -1.11; RRIRSRPPRLPRPRPRPLDNPRP: -0.339.
For the sequence RRIRNRPPRLPRPRPRPRLLPRP, the “shrunken log2 fold change” value came out at 0.0984.
In the case of RRIRCRPPRLPRPRPRPHWNPRP, the “shrunken log2 fold change” value is -0.551.
The result for RRIRTRPPRLPRPRPRPKQQPRP reads -0.0149.
As for RRIRQRPPRLPRPRPRPGIIPRP, the “shrunken log2 fold change” value is 0.0277.
With RRIRNRPPRLPRPRPRPTIQPRP, the “shrunken log2 fold change” value was -0.213.
Next, RRIRERPPRLPRPRPRPIGLPRP: -0.293.
For the sequence RRIRDRPPRLPRPRPRPYVHPRP, the “shrunken log2 fold change” value was -0.407.
As to RRIRLRPPRLPRPRPRPEDYPRP, the “shrunken log2 fold change” value was -0.0202.
The result for RRIRKRPPRLPRPRPRPRDLPRP reads 0.255.
On to RRIRGRPPRLPRPRPRPYIGPRP, for which the “shrunken log2 fold change” value came to 0.018.
Next, RRIRGRPPRLPRPRPRPHQHPRP: 0.112.
Next, RRIRRRPPRLPRPRPRPVHEPRP: 0.381; RRIRKRPPRLPRPRPRPYREPRP: -0.0243; RRIRCRPPRLPRPRPRPEDHPRP: -0.0393.
Regarding RRIRTRPPRLPRPRPRPLIDPRP, the “shrunken log2 fold change” value is -0.0458.
For the sequence RRIRMRPPRLPRPRPRPMFSPRP, the “shrunken log2 fold change” value was -0.125.
In the case of RRIRARPPRLPRPRPRPDLRPRP, the “shrunken log2 fold change” value was found to be 0.0309.
The result for RRIRWRPPRLPRPRPRPGRSPRP reads 0.0808.
Next, RRIRWRPPRLPRPRPRPHKQPRP: -0.0365.
The result for RRIRPRPPRLPRPRPRPWPHPRP reads 0.0318; that for RRIRKRPPRLPRPRPRPSCKPRP, 0.034.
As to RRIRWRPPRLPRPRPRPHQHPRP, the “shrunken log2 fold change” value is -0.214.
RRIRARPPRLPRPRPRPVCLPRP: the “shrunken log2 fold change” value came to 0.138.
The result for RRIRFRPPRLPRPRPRPGYFPRP reads -0.278; that for RRIRLRPPRLPRPRPRPPCYPRP, 0.00883; that for RRIRRRPPRLPRPRPRPYIYPRP, -0.268.
With RRIRARPPRLPRPRPRPIVCPRP, the “shrunken log2 fold change” value is 0.00943.
For the sequence RRIRCRPPRLPRPRPRPISMPRP, the “shrunken log2 fold change” value was -0.65.
The result for RRIRYRPPRLPRPRPRPLKYPRP reads -0.352; that for RRIRHRPPRLPRPRPRPPSNPRP, 0.0232; that for RRIRMRPPRLPRPRPRPFGTPRP, -0.112.
The result for RRIRARPPRLPRPRPRPTGKPRP reads 0.215.
In the case of RRIRQRPPRLPRPRPRPDIFPRP, the “shrunken log2 fold change” value was -0.104.

For the origin of these results see the supplement of paper PMC9112550, “Optimization of the antimicrobial peptide Bac7 by deep mutational scanning” (BMC Biology, 2022).
